Test [1] deals with T1, human ICOS expressed on cells (human, UniProt Q9Y6W8 21-199).
T1 sequence: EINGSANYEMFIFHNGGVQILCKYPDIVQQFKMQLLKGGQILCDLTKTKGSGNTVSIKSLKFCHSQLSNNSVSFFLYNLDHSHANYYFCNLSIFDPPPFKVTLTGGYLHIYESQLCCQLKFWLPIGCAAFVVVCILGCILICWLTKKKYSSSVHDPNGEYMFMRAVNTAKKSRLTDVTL
In words: cell-based or functional assay.

Test [2] has as its target T2, human ICOS-mFc (Chimerigen) (human, UniProt Q9Y6W8 21-140).
T2 construct: Bought; also called recombinant human ICOS protein; hICOS; not shown: mouse Fc of the bought fusion
T2 sequence: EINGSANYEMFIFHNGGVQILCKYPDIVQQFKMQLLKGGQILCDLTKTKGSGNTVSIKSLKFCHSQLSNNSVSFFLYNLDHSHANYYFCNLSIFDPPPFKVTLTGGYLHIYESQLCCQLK
In words: DELFIA ELISA on coated human ICOS-mFc, N=1. Here is the method: Recombinant ICOS proteins, human ICOS-mFc or mouse ICOS-mFc (Chimerigen) were diluted in 1×PBS and added to Black Hi-bind plates (Griener) at 1 μg/ml, 50 μl/well. Recombinant PD-L1 proteins, human PD-L1-Flag-His or mouse-His were diluted in 1×PBS and added to Black Hi-bind plates (Griener) at 4 μg/ml, 50 μl/well. The plates were left overnight at 4° C. The next day plates were washed 3× with 300 μl/well of 1×PBS+0.1% Tween and blocked with 200 ul/well of 1×PBS+1% BSA blocking buffer for 1 hr at RT on a plate shaker. Plates were washed 3× with 300 μl/well of 1×PBS+0.1% Tween.
However, human-PD-L1 mAb² antibodies were diluted in 1×PBS+0.1% BSA buffer and diluted 1 in 2 from a starting working concentration of 0.066 μM over an 11 point titration. Titrated antibodies were added to the plates, 50 μl/well and left to incubate for 1 hr at R.T on a plate shaker. Plates were washed 3× with 300 μl/well of 1×PBS+0.1% Tween.
DELFIA® Eu-labelled Anti-human IgG (Perkin-Elmer) was diluted 1:500 in DELFIA Assay buffer (Perkin-Elmer) and added to the assay plate (50 μl/well), left to incubate for 1 hr at RT on a plate shaker. […] After incubation, assay was read on Envision plate reader (Perkin Elmer), Time-resolved fluorescence (TRF) was measured at 615 nm.

The target in test [3] is T2, human ICOS-mFc (Chimerigen). In words: HTRF, human ICOS-mFc, competitor human B7-H2-Alexa 647, n3. Here is the method:
(§1) 5 μl of human ICOS-mFc (Chimerigen) at 20 nM (5 nM final) or 5 ul of mouse ICOS-mFc (Chimerigen) at 4 nM (1 nM final) were added to relevant assay wells. Plate was incubated for 1 hour (hr) at room temperature (RT).
(§2) After incubation, assay was read on Envision plate reader (Perkin Elmer) using a standard HTRF protocol. 620 nm and 665 nm channel values were exported to Microsoft Excel and % Delta-F and % Neutralisation calculations performed. Titration curves and IC50 values [M] were plotted using Graphpad (Prism). IC50 values were calculated by first transforming the data using equation X=Log(X). The transformed data was then fitted using nonlinear regression, using fitting algorithm, log (inhibitor) vs. response—variable slope (four parameters).
On the technique in general: In TR-FRET formats the signal depends on donor and acceptor labels being close together.

Test [4] concerns the target T3, mouse ICOS-mFc (Chimerigen) (mouse, UniProt Q9WVS0 21-141, limits assumed).
T3 construct: Bought; also called recombinant mouse ICOS protein; mICOS; not shown: mouse Fc of the bought fusion
T3 sequence: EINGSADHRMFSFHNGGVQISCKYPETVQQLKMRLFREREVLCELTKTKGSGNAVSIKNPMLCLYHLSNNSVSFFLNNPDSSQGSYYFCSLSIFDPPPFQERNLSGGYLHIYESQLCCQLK
In words: HTRF, mouse ICOS-mFc, competitor mouse B7-H2-Alexa 647, n1. Here is the method:
as §1, §2

For test [5], the target named is T2, human ICOS-mFc (Chimerigen). In words: HTRF, human ICOS-mFc, competitor human B7-H2-Alexa 647, average. Here is the method:
as §1, §2

Test [6] deals with T3, mouse ICOS-mFc (Chimerigen). In words: HTRF, mouse ICOS-mFc, competitor mouse B7-H2-Alexa 647, average. Here is the method:
as §1, §2

The target of test [7] is T4, mouse ICOS expressed on CHO cells (mouse, UniProt Q9WVS0 21-200).
T4 construct: also called CHO-S cells transfected with mouse ICOS; mICOS
T4 sequence (looked up): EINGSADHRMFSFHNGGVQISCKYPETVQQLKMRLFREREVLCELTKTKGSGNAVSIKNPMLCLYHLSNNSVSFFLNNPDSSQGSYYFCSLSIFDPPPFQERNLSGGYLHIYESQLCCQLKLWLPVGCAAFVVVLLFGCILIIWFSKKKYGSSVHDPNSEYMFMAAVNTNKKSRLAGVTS
In words: Flow cytometry on CHO-S mouse ICOS cells, anti-human IgG AF647, N=3. Here is the method:
CHO—S cells transfected with either human ICOS or mouse ICOS were resuspended in FACS buffer (PBS+1% w/v BSA+0.1% w/v sodium azide) and transferred to a 96-well V-bottom plate (Greiner) at a density of 1×10⁵ cells per well. mAb and mAb² were titrated in FACS buffer, 1 in 3 dilution across 11 points from a starting working concentration of 400 nM. Plates were centrifuged at 300×g for 3 minutes, supernatant discarded and 50 μL mAb or mAb² solution were added to cells and incubated at 4° C. for 1 hour. Cells were washed with 150 μL of PBS and centrifuged at 300×g for 3 minutes, supernatant was discarded and cell pellet resuspended in 150 μL PBS added. This wash step was repeated twice. Bound mAb or mAb² was detected by addition of 50 μL of anti-human 647 (Jackson ImmunoResearch) diluted to 3 ug/ml in FACS buffer. Cells were incubated for 1 hour at 4° C. in the dark. Cells were washed with 150 μL of PBS and centrifuged at 300 g for 3 minutes, supernatant was discarded and cell pellet resuspended in 150 μL PBS added. This wash step was repeated twice. Cells were fixed with 25 μL 4% v/v paraformaldehyde, incubated for 20 minutes at 4° C., cells were pelleted by centrifugation at 300×g and the supernatant discarded. […] AlexaFluor 647 signal intensity (geometric mean) was measured by flow cytometry using a Beckman Coulter CytoFLEX instrument.

B1: STIM003 (antibody, human IgG1, kappa)
heavy: not shown
light: EIVLTQSPGTLSLSPGERATLSCRASQSVSRSYLAWYQQKRGQAPRLLIYGASSRATGIPDRFSGDGSGTDFTLSISRLEPEDFAVYYCHQYDMSPFTFGPGTKVDIKRTVAAPSVFIFPPSDEQLKSGTASVVCLLNNFYPREAKVQWKVDNALQSGNSQESVTEQDSKDSTYSLSSTLTLSKADYEKHKVYACEVTHQGLSSPVTKSFNRGEC
notes: Anti-ICOS monospecific antibody, tested as human IgG1; also called STIM003 monoclonal IgG1 antibody
For the molecule B1, in test [1], the “EC50 of ADCC (specific dye release), ICOS-transfected CCRF-CEM + NK cells, Donor 326” value was 0.0212 nM. The “EC50 of ADCC (specific dye release), ICOS-transfected CCRF-CEM + NK cells, Donor 334” value in test [1] turned out to be 0.0037 nM. Moreover, the “EC50 of ADCC (specific dye release), ICOS-transfected CCRF-CEM + NK cells, Donor 341” value in test [1] was determined as 0.0067 nM. The “EC50 of ADCC (specific dye release), ICOS-transfected CCRF-CEM + NK cells, column 'Median'” value in test [1] was found to be 0.0105 nM. The EC50 in test [2] was 0.488 nM; in test [7], 7.28 nM. Besides, the IC50 in test [3] turned out to be 0.71 nM; in test [4], 0.87 nM; in test [5] it was 0.53 nM; in test [6], 0.37 nM.

B2: STIM001 (antibody, human IgG1, kappa)
heavy: not shown
light: DIVMTQSPLSLPVTPGEPASISCRSSQSLLHSNEYNYLDWYLQKPGQSPQLLIFLGSNRASGVPDRFSGSGSGTDFTLKITRVEAEDVGIYYCMQSLQTPLTFGGGTKVEIKRTVAAPSVFIFPPSDEQLKSGTASVVCLLNNFYPREAKVQWKVDNALQSGNSQESVTEQDSKDSTYSLSSTLTLSKADYEKHKVYACEVTHQGLSSPVTKSFNRGEC
notes: Anti-ICOS monospecific antibody, tested as human IgG1; also called STIM001 monoclonal IgG1 antibody
For B2, in test [1], the “EC50 of ADCC (specific dye release), ICOS-transfected CCRF-CEM + NK cells, Donor 326” value was determined as 0.0426 nM. For the same molecule, the “EC50 of ADCC (specific dye release), ICOS-transfected CCRF-CEM + NK cells, Donor 334” value in test [1] stood at 0.0205 nM. Also, the “EC50 of ADCC (specific dye release), ICOS-transfected CCRF-CEM + NK cells, Donor 341” value in test [1] came out at 0.0076 nM. In test [1], the “EC50 of ADCC (specific dye release), ICOS-transfected CCRF-CEM + NK cells, column 'Median'” value turned out to be 0.0236 nM. Further, the results for the EC50 in test [2] and in test [7] were 20 nM and 20.1 nM, respectively. The IC50 in test [3] was 2.33 nM; in test [4] it was 7.98 nM; in test [5], 1.47 nM; in test [6], 8.71 nM.

By EC50 is commonly meant the concentration that produces a half-maximal response. The low end stands for greater potency, the high end for weaker potency. As usually defined, the IC50 is the concentration that inhibits the measured activity by half. The low end stands for higher potency, the high end for lower potency.

Source of the values: US20240343810A1 (published 2024).
